According to patent publication US20260008852A1 (CRYSTAL BIOSCIENCE, published 2026):
Changes are numbered by the printed parent chain.

B1: 40633p1.1.D11 IgG (antibody, V domains shown)
VH: EVQLLESGGGLVQPGGSLRLSCAASGFTFRSYAMSWVRQAPGKGLEWVAYIGSSGGTTYYADSVKGRFTISRDNSKNTLYLQMNSLRAEDTAVYYCVKESYYYMDVWGQGTTVTVSS
VL: QSVLTQPPSASGTPGQRVTISCSATISNIDINRVSWYQQLPGTAPKLLIFNSQRPSGVPDRFSGSKSGTSASLAISGLQSEDEADYYCATWDDSLNSWVFGGGTKLTVL
B2: 40633p1.1.C11 IgG (antibody, V domains shown)
VH: EVQLLESGGGLVQPGGSLRLSCAASGFTFSSYWMSWVRQAPGKGLEWVAGINRNGGTTYYADSVKGRFTISRDNSKNTLYLQMNSLRAEDTAVYYCARWNDYDIMDVWGQGTTVTVSS
VL: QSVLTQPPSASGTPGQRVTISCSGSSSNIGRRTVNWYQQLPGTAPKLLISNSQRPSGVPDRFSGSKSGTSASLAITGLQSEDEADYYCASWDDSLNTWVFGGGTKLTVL
B3: 40633p1.2.C11 IgG (antibody, V domains shown)
VH: B2 VH with T57S, K76E, M83V
VL: QSVLTQPSSASGTPGQRVTISCSGSSSNVGRRAVNWYQQLPGTAPKLLISNSQRPSGVPDRFSGSKSGTSASLAISGLQSEDEADYYCATWDASLNSWVFGGGTKLTVL
B4: 40633p1.2.D7 IgG (antibody, V domains shown)
VH: B2 VH with G10S, A49S, N52S, R53S, N54S, G56S, T57A
VL: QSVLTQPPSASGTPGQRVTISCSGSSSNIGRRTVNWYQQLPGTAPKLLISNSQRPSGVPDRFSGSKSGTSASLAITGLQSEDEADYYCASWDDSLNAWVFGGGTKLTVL
B5: 40633p1.1.E4 IgG (antibody, V domains shown)
VH: B2 VH with A49S, N52S, R53S, N54S, G56S, T57A
VL: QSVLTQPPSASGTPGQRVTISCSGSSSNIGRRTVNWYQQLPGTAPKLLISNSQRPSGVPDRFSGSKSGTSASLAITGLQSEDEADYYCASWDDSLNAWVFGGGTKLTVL
B6: 40633p1.2.D11 IgG (antibody, V domains shown)
VH: EVQLESGGGLVQPGGSLRLSCAASGFTVSYYGMSWVRQAPGKGLEWVSAIKQDGSEKYYADSVKGRFTISRDNSKNTLYLQMNSLRAEDTAVYYCARHWNDYSNAMNVWGQGTTVTVSS
VL: QSVLTQPPSASGTPGQRVTISCSGSTSNIAIDFVNWYQQLPGTAPKLLIYTIDQRPSGVPDRFSGSKSGTSASLAISGLQSEDEAVYYCASWDASLNGWVFGRGTKLTVL
B7: 40633p1.1.G7 IgG (antibody, V domains shown)
VH: EVQLLESGGGLVQPGGSLRLSCAASGFTFSGSAMNWVRQAPGKGLEWVSAINSGGTTIYYADSVKGRFTVSRDNSKNTLYLQMNSLRAEDTAVYYCVKLDFYYGMDVWGEGTTVTVSS
VL: QSVVTQPPSASGTPGQRVTVSCSGSSSNVGSKYVQWYQQLPGTAPKLLIYATDRRPSGVPDRFSGSKSGTSASLAISGLQSEDEADYYCASWDDSLNAWVFGGGTKLTVL
B8: 40633p1.1.B3 IgG (antibody, V domains shown)
VH: EVQLLESGGGLVQPGGSLRLSCAASGFTVSYYGMSWVRQAPGKGLEWVSAIKQDGSEKYYADSVKGRFTISRDNSKNTLYLQMNSLRAEDTAVYYCARHWNDYSNAMNVWGQGTTVTVSS
VL: QSVLTQPPSASGTPGQRVTISCSGSTSNIGRESVYWYQQLPGTAPKLLIYTIDQRPSGVPDRFSGSKSGTSASLAISGLQSEDEADYYCGTWDDSLNAWVFGGGTKLTVL
B9: 40633p1.2.A10 IgG (antibody, V domains shown)
VH: B8 VH with A50V, K58E, A106G
VL: B6 VL with I29V, A30G, I31D, D32R, F33Y, N35Y, T51L, I52D, V86D, R103G
B10: 40633p1.1.F2 IgG (antibody, V domains shown)
VH: EVQLLESGGGLVQPGGSLRLSCVASGLTFNGFAMTWVRQAPGKGLEWVSGISWNSGSIYYADSVKGRFTISRDNSKNTVYLQMSSLRAEDTAIYYCAKNWNDYYNSMDVWGQGTTVTVSS
VL: B8 VL with T26R, R31T, E32K, S33Y, L40F, I52T, Q54R, G90S, T91A, S95R
B11: 40633p1.1.E3 IgG (antibody, V domains shown)
VH: B8 VH
VL: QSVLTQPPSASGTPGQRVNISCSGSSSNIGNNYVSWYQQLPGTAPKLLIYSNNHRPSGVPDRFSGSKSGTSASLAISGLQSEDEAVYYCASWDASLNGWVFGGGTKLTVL
B12: 40633p1.1.G11 IgG (antibody, V domains shown)
VH: B8 VH with A50V, K58E, L86P, A106G
VL: B6 VL with I29V, A30G, I31D, D32R, F33Y, N35Y, T51L, I52D, V86D, R103G
B13: 40633p1.2.C3 IgG (antibody, V domains shown)
VH: B8 VH with G111E
VL: QSVLTQPPSASGTPGQRVTISCSGSNSNVGGNYVSWYQQLPGTAPKLLIYRNSQRPSGVPDRFSGSKSGTSASLAISGLQSEDEAVYYCASWDASLNGWVFGGGTKLTVL
B14: 40633p1.1.G5 IgG (antibody, V domains shown)
VH: B8 VH with T28I, S30N, A40P, N77T, A106G
VL: B8 VL with T26W, R31S, E32Y, S33N, V34S, Y35H, Q39K, I52T, Q54R, A98V
B15: 40633p1.2.D1 IgG (antibody, V domains shown)
VH: EVQLLESGGGLVQPGGSLRLSCAASGFTFDVYGMSWVRQAPGKGLEWVSAINWNGGSTYYADSVKGRFTISRDNSENTLYLQMNSLRAEDTAVYYCAKEKWKHFIYYGMDVWGQGTTVTVSS
VL: QSVLTQPASASGTPGQTVSISCSGSSSNIDSNTANWYQQLPGTAPKLLIYSNNQRPSGVPDRFSGSKSDTSASLAISGLQSEDEGDYYCSAWDDNLNGWLFGGGTKLTVL
B16: 40633p1.1.H11 IgG (antibody, V domains shown)
VH: EVQLLESGGGLVQPGGSLRLSCAASGFTFSSYPMTWVRQAPGKGLEWVADINSGGGTTLYADAVKGRFTISRDNSKNIVYLQMNSLRGEDTAVYYCAKHLDYYSYGMDVWGQGTTVTVSS
VL: QSVLTQPPSASGTPGQRVTISCSGVTSKIGSKYVHWYQQLPGTAPKLLIYRNFERPSGVPDRFSGSTSGTSASLAISGLQSEDEADYYCATWEGALNGWVFGGGTKLTVL

Each binder was assayed against T1, B7-H3 on CHO-K1 cells stably transfected with B7-H3 (GenScript #M00536) (UniProt Q5ZPR3 29-534, limits assumed) (assay: cell-based or functional assay).
T1 sequence (looked up): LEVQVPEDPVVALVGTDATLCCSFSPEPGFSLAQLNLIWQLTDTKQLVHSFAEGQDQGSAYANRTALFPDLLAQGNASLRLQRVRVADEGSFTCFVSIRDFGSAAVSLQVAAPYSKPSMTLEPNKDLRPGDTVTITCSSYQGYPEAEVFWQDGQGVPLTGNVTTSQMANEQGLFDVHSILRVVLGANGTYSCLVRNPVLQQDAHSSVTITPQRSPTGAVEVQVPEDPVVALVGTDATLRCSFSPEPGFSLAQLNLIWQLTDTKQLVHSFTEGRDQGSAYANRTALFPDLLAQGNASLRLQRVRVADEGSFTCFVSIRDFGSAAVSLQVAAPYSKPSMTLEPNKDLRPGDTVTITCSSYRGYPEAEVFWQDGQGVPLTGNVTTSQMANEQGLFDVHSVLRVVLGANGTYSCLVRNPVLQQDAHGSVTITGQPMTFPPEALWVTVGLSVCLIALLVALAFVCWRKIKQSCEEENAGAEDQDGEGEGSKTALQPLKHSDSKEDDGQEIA

ADCC reporter assay, EC50 Value, CHOK1/B7-H3 cells [mg/L] | ADCC reporter assay, Max RLU, CHOK1/B7-H3 cells [RLU] | Binder
0.0119 | 656000 | B1
0.0173 | 719000 | B2
~1.56 | 94400 | B3
0.0213 | 820000 | B4
0.0194 | 676000 | B5
0.107 | 510000 | B6
0.0419 | 656000 | B7
0.0227 | 680000 | B8
0.0471 | 762000 | B9
0.0214 | 519000 | B10
0.135 | 625000 | B11
0.0344 | 725000 | B12
0.402 | 490000 | B13
0.18 | 452000 | B14
0.0216 | 676000 | B15
0.0412 | 798000 | B16
